± gives the uncertainty stated by the source.

The record followed here is the supplement of paper PMC9732359.

The nature of the data set: protein stability index of a GFP-peptide fusion (yeast GPS) (PSI 1-4); higher = more stable; sorted into four equal gates, so the index is relative within each strain. The procedure, abridged:
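Mid-log yeast cultures in leucine-free medium, carrying a pooled plasmid library, were sorted into four equal gates by their GFP/Cherry fluorescence ratio. Each plasmid expressed Cherry along with GFP fused upstream of a tiled 17-residue yeast protein peptide. Plasmids recovered from each gate were PCR-amplified and Illumina-sequenced, with reads assigned to strains by barcodes. The protein stability index was obtained by summing each gate's read frequency weighted by its gate number.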

Consider PEGTLSGGSRNTSESLL [SMC2], for which the protein stability index (doa10∆) stood at 3.4 ± 0.2, the protein stability index (pdr5∆) turned out to be 3.29 ± 0.15, the protein stability index (san1∆) is 3.44 ± 0.13 and the protein stability index (ubr1∆) turned out to be 3.28 ± 0.25.

Regarding VAEIVQNVISLGSLTVE [RPC82], the protein stability index (doa10∆) was 1.97 ± 0.068, the protein stability index (pdr5∆) was 2.23 ± 0.098, the protein stability index (san1∆) was determined as 1.97 ± 0.14 and the protein stability index (ubr1∆) came out at 1.68 ± 0.11.

With RRRRLKKVEEEENAATL [RPB4], the protein stability index is, setting by setting: (doa10∆) 3.17 ± 0.2; (pdr5∆) 3.75 ± 0.26.

Take TGKVSEFISIYSNSHQM [RET1]: the protein stability index reads like this: (doa10∆) 2.83 ± 0.092; (pdr5∆) 2.44 ± 0.12; (san1∆) 3.03 ± 0.11; (ubr1∆) 2.72 ± 0.073.

The sequence KTDFAKIINKPNELSQI [RPC82] registered a protein stability index (doa10∆) of 3.09 ± 0.12, a protein stability index (pdr5∆) of 3.13 ± 0.12, a protein stability index (san1∆) of 2.84 ± 0.091 and a protein stability index (ubr1∆) of 3.12 ± 0.14.

Consider LPLPPSVEWMKVSPSMC [SIN4], for which the protein stability index was 1.75 ± 0.055 (doa10∆), 1.71 ± 0.05 (pdr5∆), 1.69 ± 0.09 (san1∆) and 1.55 ± 0.063 (ubr1∆).

The sequence NFIEPGINQILGNEKNQ [CDC53] gave a protein stability index (ubr1∆) of 2.75 ± 0.2.

For TGWHVDQAIVTETKRLV [DIB1], the protein stability index is, setting by setting: (doa10∆) 1.88 ± 0.074; (pdr5∆) 2.24 ± 0.075; (san1∆) 2.08 ± 0.25; (ubr1∆) 1.9 ± 0.077.

Consider CNEEQTLEAKIGGLLSK [RPO31], for which the protein stability index (doa10∆) was found to be 3.16 ± 0.059, the protein stability index (pdr5∆) came to 3.25 ± 0.059, the protein stability index (san1∆) is 2.99 ± 0.052 and the protein stability index (ubr1∆) amounted to 2.91 ± 0.05.

Regarding LARHLPAELDLRGSLLS [RPC82], the protein stability index is, setting by setting: (doa10∆) 3.04 ± 0.12; (pdr5∆) 3.16 ± 0.11; (san1∆) 3.01 ± 0.085; (ubr1∆) 3.15 ± 0.072.

Turning to ETAKMIENMTKEKVSNG [FAS2], the protein stability index is, setting by setting: (doa10∆) 3.41 ± 0.3; (pdr5∆) 3.28 ± 0.13; (san1∆) 3.57 ± 0.091; (ubr1∆) 3.02 ± 0.11.

Consider TGVSVEAVDDVFQAKMM [RPN11], for which the protein stability index reads like this: (doa10∆) 2.8 ± 0.14; (pdr5∆) 3.06 ± 0.12; (san1∆) 2.92 ± 0.082; (ubr1∆) 2.87 ± 0.13.

For the sequence TIHAKRKIVFRCSECIK [RPN4], the protein stability index amounted to 2.39 ± 0.056 (doa10∆), 2.73 ± 0.066 (pdr5∆), 2.15 ± 0.11 (san1∆) and 2.59 ± 0.056 (ubr1∆).

For GASTVMKTKTINAQGEE [PRP8], the protein stability index came to 3.31 ± 0.11 (doa10∆), 3.06 ± 0.15 (pdr5∆), 3.2 ± 0.083 (san1∆) and 3.07 ± 0.07 (ubr1∆).

In the case of SEILSFDPVYTTVITVF [YML103C/NUP188], the protein stability index by setting is: (doa10∆) 2.08 ± 0.059; (pdr5∆) 2.27 ± 0.051; (san1∆) 1.6 ± 0.11; (ubr1∆) 1.62 ± 0.048.

In turn, SDGIVLAAERKVTSTLL [PRE9] gave a protein stability index (doa10∆) of 2.39 ± 0.1, a protein stability index (pdr5∆) of 1.58 ± 0.065 and a protein stability index (ubr1∆) of 1.85 ± 0.075.

As for KPAFSFGATTNDDKKTE [YJL041W/NSP1], the protein stability index was 2.92 ± 0.099 (doa10∆), 3.07 ± 0.067 (pdr5∆), 3.01 ± 0.058 (san1∆) and 2.89 ± 0.045 (ubr1∆).

EEDDEGELEQAQAWINL [RPN7]: the protein stability index is, setting by setting: (doa10∆) 3.58 ± 0.28; (pdr5∆) 3.23 ± 0.11; (san1∆) 3.43 ± 0.11; (ubr1∆) 3.26 ± 0.058.

AAPAGVAGGVAGGEAGE [RPP1A]: the protein stability index worked out at 1.91 ± 0.16 (doa10∆), 1.8 ± 0.18 (pdr5∆) and 1.66 ± 0.28 (san1∆).

With LEDMVFPTEIVGKRVRY [RPS7B], the protein stability index came to 1.57 ± 0.16 (doa10∆), 1.76 ± 0.088 (pdr5∆), 2.5 ± 0.21 (san1∆) and 2.69 ± 0.055 (ubr1∆).

In the case of KSNGSSDDDNIGQSEEL [ISW2], the protein stability index is, setting by setting: (doa10∆) 3.3 ± 0.1; (pdr5∆) 3.44 ± 0.09; (san1∆) 3.31 ± 0.08; (ubr1∆) 3.42 ± 0.12.

As to DESDSENDIEIKGPEFK [YLR335W/NUP2], the protein stability index by setting is: (doa10∆) 2.88 ± 0.11; (pdr5∆) 2.92 ± 0.21; (san1∆) 3.03 ± 0.13; (ubr1∆) 2.96 ± 0.095.

In the case of YDEVKKHWGGGILGNKA [RPL8A], the protein stability index is, setting by setting: (doa10∆) 3.16 ± 0.11; (pdr5∆) 3.4 ± 0.089; (san1∆) 3.44 ± 0.06; (ubr1∆) 3.23 ± 0.061.

On to SGDESNVISSKDWELEA [YDL116W/NUP84], for which the protein stability index stood at 3.45 ± 0.08 (doa10∆), 3.36 ± 0.052 (pdr5∆), 3.45 ± 0.06 (san1∆) and 3.41 ± 0.066 (ubr1∆).

For ELEDVAVKKLYAIIINY [YCS4], the protein stability index reads like this: (doa10∆) 1.84 ± 0.057; (pdr5∆) 1.97 ± 0.065; (san1∆) 1.59 ± 0.12; (ubr1∆) 1.44 ± 0.031.

On to DGVTHALYPQEARLRNL [RPB2], for which the protein stability index runs as follows: (doa10∆) 3.22 ± 0.27; (pdr5∆) 3.06 ± 0.22; (san1∆) 3.23 ± 0.13.

Sequence TTNNNNTNNNNTNNNNN [SWI1] displayed a protein stability index (doa10∆) of 3.39 ± 0.087, a protein stability index (pdr5∆) of 3.5 ± 0.082, a protein stability index (san1∆) of 3.43 ± 0.06 and a protein stability index (ubr1∆) of 3.42 ± 0.079.

Regarding DDRGPVLESIVARTFWA [BRR2], the protein stability index came out at 2.67 ± 0.09 (doa10∆), 2.07 ± 0.057 (pdr5∆), 2.9 ± 0.11 (san1∆) and 2.85 ± 0.077 (ubr1∆).

KITAKTQHEEEEEQDTG [IRR1]: the protein stability index (doa10∆) was determined as 2.69 ± 0.11, the protein stability index (pdr5∆) is 3.16 ± 0.13 and the protein stability index (san1∆) turned out to be 2.82 ± 0.22.

Consider VQVRSVMDPITSKRKAE [DIS3], for which the protein stability index by setting is: (doa10∆) 2 ± 0.13; (pdr5∆) 2.41 ± 0.13; (san1∆) 2.92 ± 0.079; (ubr1∆) 2.79 ± 0.12.

For the sequence DYRPAEETEAQAEPVEA [RPS3], the protein stability index (doa10∆) worked out at 2.93 ± 0.075, the protein stability index (pdr5∆) was 3.26 ± 0.065, the protein stability index (san1∆) worked out at 3.14 ± 0.038 and the protein stability index (ubr1∆) amounted to 3.17 ± 0.052.

In the case of IAAERAARKAANKEKRA [RPL7B], the protein stability index is 3.27 ± 0.16 (doa10∆), 3.59 ± 0.21 (pdr5∆), 3.28 ± 0.22 (san1∆) and 3.3 ± 0.17 (ubr1∆).

Turning to SKNAERKWAARAASAKI [RPS8A], the protein stability index (doa10∆) came to 3.135 ± 0.03, the protein stability index (pdr5∆) turned out to be 3.212 ± 0.028, the protein stability index (san1∆) amounted to 3.173 ± 0.022 and the protein stability index (ubr1∆) turned out to be 3.219 ± 0.026.

Take QMIQQRHQQLLRSRLQQ [SNF5]: the protein stability index (doa10∆) came to 2.08 ± 0.12, the protein stability index (pdr5∆) is 2.14 ± 0.15, the protein stability index (san1∆) came out at 2.71 ± 0.15 and the protein stability index (ubr1∆) turned out to be 3.02 ± 0.12.

For the sequence IYRTTRQDGSYTYHSTN [ARP9], the protein stability index is, setting by setting: (doa10∆) 2.61 ± 0.08; (pdr5∆) 2.74 ± 0.083; (san1∆) 2.27 ± 0.093; (ubr1∆) 2.53 ± 0.058.

ECSKDMKEDGLSFVDIV [SIR4] gave a protein stability index (doa10∆) of 2.75 ± 0.17, a protein stability index (pdr5∆) of 3.39 ± 0.1, a protein stability index (san1∆) of 3.1 ± 0.088 and a protein stability index (ubr1∆) of 3.03 ± 0.065.

With AKSISTSAKEPSENDVF [RPO31], the protein stability index runs as follows: (doa10∆) 2.99 ± 0.072; (pdr5∆) 3.06 ± 0.069; (san1∆) 2.56 ± 0.083; (ubr1∆) 3.2 ± 0.09.

ILSTTLDPTDDEGHVLK [SIN4] yielded a protein stability index (doa10∆) of 2.58 ± 0.15, a protein stability index (pdr5∆) of 2.64 ± 0.11, a protein stability index (san1∆) of 3.01 ± 0.14 and a protein stability index (ubr1∆) of 3 ± 0.12.
